Assay: yeast display, Sf9 membrane polyspecificity reagent, FACS + sequencing; frameworks hold sequencing errors
Summary of the method: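 Genes from sorted yeast were amplified by colony PCR, read by MiSeq 2 × 250 sequencing and filtered on CDR length. These cells carried a synthetic nanobody library in Saccharomyces cerevisiae BJ5465 and were sorted by FACS into low and high (top ~1%) gates on anti-HA and streptavidin fluorescence. Polyreactivity is labelled according to the gate of origin.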

Row | Sequence | polyreactivity (PSR sort gate)
1 | QVQLVQSGGGLVQAGGSLRLSCAASGITFEYNTMGWYRQAPGKERELVAAITQGGGTTNYADSVKGRFTISRDNAKNTVYLQMNSLKPEDTAVYYCAAFVGYLLLYYPTYYYWGQGTEVTVSS | low polyreactivity
2 | QVQLVESGGGLVQAGGSLRLSCAASGSIFWYNSMGWYRQAPGKERELVAAISYRGGRTYYADSVKGRFTISRDNAKNTVYLQMNSLKPEDTAVYYCNAPRYLGGGQDALGDYWGQGTQVTVSS | high polyreactivity
3 | QVQLVESGGGLVQAGGSLRLSCAASGRTFGSYVMGWYRQAPGKERELVAAITTSGGRTYYADSVKGRFTISRDNAKNTVYLQMNSLKPEDTAVYYCAAVQLTPTTLYRYYSWGQGTQVTVSS | high polyreactivity
4 | QVQLVESGGGIVQAGGSLRLSCAASGLTFGFNAKGWYTQAPGQERELVATIDLNGGSTTYADSVKGRFTLSRDNAKNTVYLQMNSLKPEDTAVYYCAAQTGFVSHFFSHYDYGGQGTQVTVSS | low polyreactivity
5 | QVQLVESGGGLVQAGGSLRLSCAASGNIFVRYAMGWYRQAPGKERELVAAISSSGGRTYYADSVKGRFTISRDNAKNTVYLQMNSLKPEDTAVYYCADAQGNAHRDYWGQGTQVTVSS | high polyreactivity
6 | QVQLVESGGGLVQAGGSLRLSCAASGSTFEFYAMGWYRQAPGKERELVAAISSIGGSTYYADSVKGRFTISRDNAKNTVYLQMNSLKPEDTAVYYCAATSDSSLYVYWGQGTQVTVSS | low polyreactivity
7 | QVQLVESGGGLVQAGGSLRLSCAASGIIFSWYAMGWYRQAPGKERELVATISSGAHTYYADSVKGRFTISRDNAKNTVYLQMNSLKPEDTAVYYCATTSYGYWFGYIPEVDYWGQGTQVTVSS | low polyreactivity
8 | QVQLVESGGGLVQAGGSLRLSCAASGSTFVWYAMGWYRQAPGKERELVAAISSGGSTNYADSVKGRFTISRDNAKNTVYLQMNSLKPEDTAVYYCAAKAYFSSYWRWRGAMDHWGQGTQVTVSS | low polyreactivity
9 | QVQLVESGGGLVQAGGSLRLSCAASGRIFGTNAMGWYIQAPGKERELVADITSGGSTNYADSVKGRFTISRDNAKNTVYLQMNSLKPEDTAVYYCAADVIGDLRWYRDEYWGQGTQVTVSS | low polyreactivity
10 | QVQLVESGGGLVQAGGSLRLSCAASGFTFDKKVMGWYRLAPGKERELVAANSVRGGTTYYADSVKGRFTISRDYAKNTVYLQMNSLKPEDSAVYDCAARAYGPPARYESWGQGTQVTVSS | low polyreactivity
11 | QVQLVESGGGLVQPGGSLRLSCAASGRSFFGYPMGWYRQAPGKERELVATISGSGASTYYADSVKGRFTISRDNAKNTVYLQMNSLKPEDTAVYYFAARYVTNRHSRYYYWGQGTQVTVSS | high polyreactivity
12 | QVQLVESGGGLVQAGGSLRLSCSASGFTFWVNAMGWYRQAPGKERELVAAISRRGGRTYYADSVKGRYTISRDNAKNTVYLQMNSLKPEDTAVYYCNKEDVGCSESDYWGQGTQVTVSS | high polyreactivity
13 | QVQLVESGGGLVQAGGSLRLSCAASGFTFEYYALGWYRPAPGKERELVAAITYSGGSTYYADSVKGRFTISRDNAKITVYLQLNSLKPEDTAVYYCATESPRYRLYQSAVYGYFYWGQGTQVTVSS | high polyreactivity
14 | QVQLVESGGGLVQAGGSLRLSCAASGRIFRYYTMGWYRQAPGKERELVATISWNGSNTYYADSVKGRFTISRDNAKNTVYLQMNSLKPEDTAVYYCAAGVLPGLYNGARLFDYWGHGTQVTVSS | low polyreactivity
15 | QVQLVESGGGLVQAGGSLRLSCGASGFTFSGNVMGWYRQAPGKEREFVAAITSRGGSSYYADSVKGRFTISRDNAKNTVYLQMNSLKPEDTAVYYCNRRRWYFFSLDYWGQGTQVTVSS | high polyreactivity
16 | QVQLEESGGALVQAGGSLRISCAASGSTFYYNAMGWYRQAPGKERELVAVITLNGGRTSYADSVKGRFTISRDNAKNTVYLQMNSLKPEDSAVYYCAADRYRGYGYWGQGTQVTVSS | low polyreactivity
17 | QVQLVESGGGLVQAGGSLRLSCAASGSIFWYNAMGWYRQAPGKERELVAAISRSGSRTYYADSVKGRFTISRDNAKNTVYVQMTSLKPEATAVYYCARVRPRGLYFVLHYDYWGQGTQVTVSS | high polyreactivity
18 | QVQLVESGGGLVQAGGSLRLSCAASGFTFAYYAMGWYRQAPGKERELVAAITGSGGRTYYADSVKGRFTISRDNAKNTVYLQMNSLKPEDTAVYYCAADRTVYYLSRTGYDYWGQGTQVTVSS | high polyreactivity
19 | QVQLVESGGGLVQAGGSLRLSCAASGSILRQYAMGWYRPAPGKERELVAAINSGGSTNYADSVKGRITISRDNAKNTVYLQMNSLKPEDTAVYFCAADWSLYSHEFDYWGQGTQVTVSS | high polyreactivity
20 | QVQLVESGGVLVQAGGSLRLSCAASGSTFVRNAMGWYRQAPGKEWELVAAITGTGDSTYYADSVKGRFTISRDNAKNTVYLQMNSLKPEDTAVYYCAANSDAYRYWYDYWGQGTQVTVSS | low polyreactivity
21 | QVQLVESGGGLVQAGGSLRLSCAASGFTFSRYAMGWYRQAPGKERELVAAISYSGGRTYYADSVKGRFTISRDNAKNTVYLQMKSLKPEDTAVYYCNAFFTSSGWRLGYDYWGQGTQVTVSS | high polyreactivity
22 | QVQLVESGGGLVQAGGRLRLSCAASGSTFAGNAMGWYRQAPGKERELVAAIDSSTGSTYYADSVKGRFTISRDNAKNTVYLQMNSLKAEDTAVYYCNKTSFLVKLDYWGQGTQVTVSS | low polyreactivity

Row | Sequence | polyreactivity (PSR sort gate)
23 | QVQLVESGGGLVQAGGSLRLSCAASGFTCTRNAMGWFRQAPGKERELVAAISSSAGSTSYADSVKGRFTISRDNAKNTDYLQMNSLKPEDTAVYYCATEGSYYSWVGKVGYRYQYHYWGQGTQVTVSS | high polyreactivity
24 | QVQLVESGGGLVQAGGSLRLSCAASGSTFAVNVMGWYRQAPGKERELVATITYRDGRTYYADSVKGRFTISRDNAKNTVYLQMNSLKPEDTAVYYCAADDEYKQEAEMDSWGQGTQVTVSS | low polyreactivity
25 | QVQLVESGGGLVQAGGSLRLSCAASGSIFGRYVMGWYRQAPGKERELVAAINWSGSRTYYADSVKGRFTISRDNAKNTVYLQMNSLKPEDTAVYYCAADWWSRYYYWGQGTQVTVSS | high polyreactivity
26 | QVQLVESGGGLVQAGGSLRLSCAASGITFRYYTMGWYRQAPGKERELVAAISRSGGSTYYADSVKGRFTISRDNAKNNVYLQMNSLKPEDTAVYYCAVDYTYDMDYWGQGTQVTVSS | high polyreactivity
27 | QVQLVESGGGLVQAGGSLRLSCAASGSIFGSNTMGWYRQAPGKEREFVAAISFSGGSTYYADSVKGRFTISRDNAKNTVYLQMNSLKPEDTAVYYCAARQRRVGTSFYSSRRDYWGQGTQVTVSS | high polyreactivity
28 | QVQLVESGGGLVQAGGSLRLSCAASGITFVTYAMGWYRQAPGKERELVAAITIGGRTNYADSVKGRFTISRDNAKNTVYLQMNSLKPEDTAVYYCNAAPVYDVTRLFYDDMGYWGQGTQVTVSS | low polyreactivity
29 | QVHLVESGGGLVQAGGSLRLTCAASGGIFHINAMGWYRQAPGKERELVAAITRTTITYADSVKGRFTISRDNAKYTVYLQMNRLKLEDSAVYYCAARDKRTPSGVEITGYDYWGQGSQVTVSS | low polyreactivity
30 | QVQLVESGGGLVQAGGSLRLSCAASGLTFPFYAMGWYRQAPGKERELVAAITGSGGITYYADSVKGRFTISRDNAKNTVYLQMNSLKPEETAVYYCAFDYTYYTSFVPLFGFDYWGQGTQVTVSS | low polyreactivity
31 | QVQLVESGGGLVQAGGSLRLSCAASGSIFGTYAKGWYRQAPGKERELVAAISKRGSTTSYADSVKGRFTISRDNAKNTVYLQMNSLKPEDTAVYYCAALTRNSGGYGSWGQGTQVTVSS | high polyreactivity
32 | QVQLVESGGGLVEAGGSLRLSCAASGIIFVSYDMGWYRQAPGKERELVAAINRGGRTYYADSVKGRFTISRDNAKNTVYLQMISLKPEDTAVYYCAAQFHFRPFSWTYDYWGQGTQVSVSS | high polyreactivity
33 | QVQLVESGGGLVQAGGSLRLSCAASGFIVTANGMGWDRQAPGQERELVASISRRGGSTYYADSVKGRFTISRDNAKNTVYLQMNSLKPEDTAVYYCAARFYQEWGQGTQVTVSS | high polyreactivity
34 | QVQLVESGGGLVQAGGSLRLSCAASGFTFQHNSMGWYRQAPGKERELVAAISLGGSTNYADSVKGRFTISRDNAKNSVYLQMNSLKPEDSAVYYCAAYDWRVLWGYDYWGQGTQVTVSS | low polyreactivity
35 | QVQLVESGAGLVQAGGSLRLSCAASGRTFWSNAMGWYRQAPGKEREFVAAIRSTVGSTYYADSVKGRFTISRDNAKNTVYLQMNSLNPEDTAVYYCYVSSGYYAYYYWGQGTQVTVSS | high polyreactivity
36 | QVHLVESGGGLVQAGGSLRLSCAASGSTFDTYAMGWYRQAPGKERELVAAISYRGGNTYYADSVKGRFTISRDNAKNTVYLQMNSLKPEDTAVYYCNAGVSIGRSRRYDYWGQGTQVTVSS | low polyreactivity
37 | QVQLVESGGGLVQAGGSLRLSCAASGFIFYRYAMGWYRQAPGKEREFVAAITRSAGGTYYADSVKGRFTISRDNEKNTVYLQMNSLKPEDTAVYYCAAVYRSGSRYYLGWYNYWGQGTQVTVSS | high polyreactivity
38 | QVQLVESGGGLVQAGGSLRLICAASGFIYFFYAMGWSRQAPGKEMEFVAVITQSGGSTYYADSVKGRFTISRDNAKNTVYLQMNSLKPEDTAVYYFNADTVRYYPFFSVRYYYWGQGTQVTVSS | low polyreactivity
39 | QVQLVESGGGLVQAGGSLRLSCAASGFTFRYNAMGWYRQAPGKEREVVAAITSGGNTNYADSVKGRFTISRDNAKNTFYLQMNSLKPEDTAVYYCNTAWRDYVARLGGVGYDYWGQGTQVTVSS | high polyreactivity
40 | QVQLVESGGGLVQAGGSLRLSCAASGRIYYVYGMGWYRQAPGKERELVAAITRSGGSTYYADSVKGRFTISRDNAKNTVYLQMNSLKPEDTAVYYCAASVPYYTGYYYNAYEYWGQGTQVTVSS | high polyreactivity
41 | QVQLVESGRGLVQAGGSLRLSCAASGRIFKTYAMGWYRQAPGKERELVAAITTSGDSTYYADSVKGRFTISRDNAKNTVYLQMNSLKPEDTAVYYCAARPRVRSSYRYYYWGQGTQLTVSS | high polyreactivity
42 | QVQLVESGGGLVQAGGSLRLSCAASGITFDYYAMGWYRQAPGKERELVAAISWGGGSTYYADSVKGRFTISRDNAKNTVYLQMNSLKPEDTAVYYCAADIVSSPSSYVPPGDYWGQGTQVTVSS | low polyreactivity
43 | QVQLEETGGGLVQAGGSLRLSCAASGRIFWWYAMGWYRQAPGKERELVAVIDDSGGITYYADSVKGRFTISRDNAKNTVYLQMNSLKPEDTAVYYCARNVNAQKVLAGFDYWGQGTQVTVSS | low polyreactivity

Source: the nanobody polyreactivity screen of Harvey et al. (2022)
